Key:
FOXN1 1-614 [1] = target: T1, FOXN1 1-614 (human, UniProt O15353 1-614); experiment: EMSA; apparent Kd; EMSA: 50 mM Tris-HCl pH 7.5, 25 mM NaCl, 0.5 mM EDTA, 0.1% Tween 20, 2 mM DTT, 5% glycerol, 30 min room temperature; FP: 10 mM HEPES pH 7.5, 50 mM NaCl, 1 mM TCEP, 10 nM probe; conditions: protein: recombinant; tags: His tag (pNIC28-Bsa4), cleaved with TEV; label: 32P on forward strand (5', T4 PNK); blunt
T1 sequence: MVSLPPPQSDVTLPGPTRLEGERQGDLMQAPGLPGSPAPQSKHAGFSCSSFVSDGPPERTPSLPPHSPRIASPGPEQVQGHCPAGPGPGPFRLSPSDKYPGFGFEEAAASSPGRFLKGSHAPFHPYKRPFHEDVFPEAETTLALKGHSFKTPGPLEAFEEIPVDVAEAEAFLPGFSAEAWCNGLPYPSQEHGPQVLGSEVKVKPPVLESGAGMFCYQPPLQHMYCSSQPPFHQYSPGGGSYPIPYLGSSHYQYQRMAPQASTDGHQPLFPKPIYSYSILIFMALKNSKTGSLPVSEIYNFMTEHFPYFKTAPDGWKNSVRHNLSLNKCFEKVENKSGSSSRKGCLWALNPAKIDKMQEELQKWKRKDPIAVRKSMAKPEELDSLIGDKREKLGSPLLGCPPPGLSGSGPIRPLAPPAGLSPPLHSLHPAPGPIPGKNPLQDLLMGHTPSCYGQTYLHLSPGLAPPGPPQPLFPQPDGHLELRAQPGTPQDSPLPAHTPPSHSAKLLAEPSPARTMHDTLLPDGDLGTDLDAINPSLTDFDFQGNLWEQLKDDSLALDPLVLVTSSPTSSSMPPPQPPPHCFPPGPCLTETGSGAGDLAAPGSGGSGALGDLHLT

FOXN1 1-614 [2] = target: T1, FOXN1 1-614; experiment: fluorescence polarization; EMSA: 50 mM Tris-HCl pH 7.5, 25 mM NaCl, 0.5 mM EDTA, 0.1% Tween 20, 2 mM DTT, 5% glycerol, 30 min room temperature; FP: 10 mM HEPES pH 7.5, 50 mM NaCl, 1 mM TCEP, 10 nM probe; conditions: protein: recombinant; tags: His tag (pNIC28-Bsa4), cleaved with TEV; label: 3' FITC on strand 1; blunt
FOXN1 forkhead domain [3] = target: T2, FOXN1 forkhead domain (human, UniProt O15353 270-366); experiment: X-ray crystallography; 1.6 A structure; crystals at pH 4.5; EMSA: 50 mM Tris-HCl pH 7.5, 25 mM NaCl, 0.5 mM EDTA, 0.1% Tween 20, 2 mM DTT, 5% glycerol, 30 min room temperature; FP: 10 mM HEPES pH 7.5, 50 mM NaCl, 1 mM TCEP, 10 nM probe; conditions: protein: recombinant; tags: His tag (pNIC28-Bsa4), cleaved with TEV; blunt
T2 sequence: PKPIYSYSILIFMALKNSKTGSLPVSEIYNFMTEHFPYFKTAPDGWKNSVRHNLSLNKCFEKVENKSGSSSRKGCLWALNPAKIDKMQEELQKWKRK

FOXN1 1-614 [4] = target: T1, FOXN1 1-614; experiment: EMSA; apparent Kd; multiple shifted species; EMSA: 50 mM Tris-HCl pH 7.5, 25 mM NaCl, 0.5 mM EDTA, 0.1% Tween 20, 2 mM DTT, 5% glycerol, 30 min room temperature; FP: 10 mM HEPES pH 7.5, 50 mM NaCl, 1 mM TCEP, 10 nM probe; conditions: protein: recombinant; tags: His tag (pNIC28-Bsa4), cleaved with TEV; label: 32P on forward strand (5', T4 PNK); blunt
FOXN1 forkhead domain [5] = target: T2, FOXN1 forkhead domain; experiment: EMSA; no significant binding over the concentration range tested; EMSA: 50 mM Tris-HCl pH 7.5, 25 mM NaCl, 0.5 mM EDTA, 0.1% Tween 20, 2 mM DTT, 5% glycerol, 30 min room temperature; FP: 10 mM HEPES pH 7.5, 50 mM NaCl, 1 mM TCEP, 10 nM probe; conditions: protein: recombinant; tags: His tag (pNIC28-Bsa4), cleaved with TEV; label: 32P on forward strand (5', T4 PNK); blunt

B1: tandem FKH EMSA probe (dsDNA)
DNA 1: AGCATAAACAACAGAGCGATAAACCAGG
DNA 2: CCTGGTTTATCGCTCTGTTGTTTATGCT
Kd (FOXN1 1-614 [1]): 205 ± 21 nM

B2: tandem FKH FP probe (dsDNA)
DNA 1: GCAGCATAAACAACAGAGCGATAAACCAGGG
DNA 2: CCCTGGTTTATCGCTCTGTTGTTTATGCTGC
Kd (FOXN1 1-614 [2]): 85 ± 11 nM

B3: Psmb11 FHL 13-mer (dsDNA)
DNA 1: TGAAGACGCCACC
DNA 2: GGTGGCGTCTTCA
binding result (FOXN1 forkhead domain [3]): binds

B4: PSMA7 tandem FHL EMSA probe (dsDNA)
DNA 1: GCAGCAGACGCAACAGAGCGAGACGCCAGGG
DNA 2: CCCTGGCGTCTCGCTCTGTTGCGTCTGCTGC
Kd (FOXN1 1-614 [4]): 82 ± 8 nM
binding result (FOXN1 forkhead domain [5]): no binding

B5: tandem FHL FP probe (dsDNA)
DNA 1: B4 DNA 1
DNA 2: B4 DNA 2
Kd (FOXN1 1-614 [2]): 38 ± 3.3 nM

Reference: paper PMC7062188, “The crystal structure of human forkhead box N1 in complex with DNA reveals the structural basis for forkhead box family specificity”
